Where a chain is given by its changes, count along the chain named. Names may count otherwise.
B1: P2H8: T. maritima Cel5A cellulase mutant with D40N and L231R; SEQ ID NO: 2 (protein, listed as Thermotoga maritima)
chain: MGVDPFERNKILGRGINIGNALEAPNEGDWGVVIKDEFFNIIKEAGFSHVRIPIRWSTHAYAFPPYKIMDRFFKRVDEVINGALKRGLAVVINIHHYEELMNDPEEHKERFLALWKQIADRYKDYPETLFFEILNEPHGNLTPEKWNELLEEALKVIRSIDKKHTIIIGTAEWGGISALEKLSVPKWEKNSIVTIHYYNPFEFTHQGAEWVEGSEKWLGRKWGSPDDQKHRIEEFNFIEEWSKKNKRPIYIGEFGAYRKADLESRIKWTSFVVREMEKRRWSWAYWEFCSGFGVYDTLRKTWNKDLLEALIGGDSIE
B2: P3D7: T. maritima Cel5A cellulase mutant with E308K; SEQ ID NO: 3 (protein, listed as Thermotoga maritima)
chain: B1 chain with N40D, R231L, E308K
B3: P4B5: T. maritima Cel5A cellulase mutant with K155N; SEQ ID NO: 4 (protein, listed as Thermotoga maritima)
chain: B1 chain with N40D, K155N, R231L
B4: P8E4: T. maritima Cel5A cellulase mutant with A113V; SEQ ID NO: 5 (protein, listed as Thermotoga maritima)
chain: B1 chain with N40D, A113V, R231L
B5: P13F6: T. maritima Cel5A cellulase mutant with E132D, N140S, E202K and K304N; SEQ ID NO: 6 (protein, listed as Thermotoga maritima)
chain: B1 chain with N40D, E132D, N140S, E202K, R231L, K304N
B6: P15B10: T. maritima Cel5A cellulase mutant with D29V and I92F; SEQ ID NO: 7 (protein, listed as Thermotoga maritima)
chain: B1 chain with D29V, N40D, I92F, R231L
B7: P15G2: T. maritima Cel5A cellulase mutant with K35N, E209G and A256T; SEQ ID NO: 8 (protein, listed as Thermotoga maritima)
chain: B1 chain with K35N, N40D, E209G, R231L, A256T
B8: P15H11: T. maritima Cel5A cellulase mutant with S177R; SEQ ID NO: 22 (protein, listed as Thermotoga maritima)
chain: B1 chain with N40D, S177R, R231L
B9: P1E3: T. maritima Cel5A cellulase mutant with E98A and E106D; SEQ ID NO: 1 (protein, listed as Thermotoga maritima)
chain: B1 chain with N40D, E98A, E106D, R231L

Assay: Beta-1,4-endoglucanase (CMCase) activity assay of Cel5ATm mutants
Assay type: biochemical
Protocol: CMCase activity assay is carried out in 50 mM Bis-Tris-HCl buffer (pH 6.5) containing 1% carboxylmethylcellulose (CMC) and incubated at 75° C. for 30 min. Reducing sugars are analyzed by DNS method as described in Xiao Z, Storms R and Tsang A (2005) “Microplate-based carboxymethylcellulose assay for endoglucanase activity”, Anal. Biochem. 342: 176-178. Cellobiose is used as reducing sugars standard. 1 U is defined as enzyme amount to produce 1 μmol reducing sugars in one minute at optimal conditions.
5 μl supernatant is mixed with 35 μl sterile ddH2O and 40 μl 2% CMC in 100 mM Bis-Tris-HCl (pH 6.5) in 96-well PCR plates. These plates are incubated in thermocyclers at 75° C. for 30 min. 80 μl of DNS reagent is added (Ref 1), mixed and incubated at 95° C. for 5 min. The solution is cooled to 4° C. and transferred 100 μl of the products into 96-well plate for reading the ABS at 540 nm.
Clones from the mutant library are analyzed as described for the wild-type of Cel5ATm except that after transferring normal cultures into autoinduction medium, normal culture plates are added by sterile glycerol to 10%, mixed and stored at −80° C. for future investigation. The clones with endoglucanase activity larger than 120% of the wild-type are selected to express the enzymes in 5 ml culture and purified by Ni-NTA columns. Activity improvements are confirmed by detection of their specific activity (U/mg) and plasmids sequencing.

Row | Molecule | improvement of cellulase activity over the wild-type T. maritima cellulase
1 | B1 | about 40.56%
2 | B2 | about 78.76%
3 | B3 | about 33.02%
4 | B4 | about 49.06%
5 | B5 | about 68.51%
6 | B6 | about 33.79%
7 | B7 | about 66.92%
8 | B8 | about 35.98%
9 | B9 | about 31.77%

Source: US9322042B2, “Thermostable cellulases, and mutants thereof, capable of hydrolyzing cellulose in ionic liquid” (The Regents of the University of California, priority 2009, dated 2016)
